The experiment relates to rat spinal cord motor neurones. Nature of the experiment: Neurite growth of spinal cord motor neurones in primary culture (anti β-Tubulin, In Cell Analyzer). It is filed as cell-based. How it is done:
Rat spinal motor neurones were prepared according to the method described by Martinou et al., 1992 (Martinou J C, Martinou I, Kato AC Cholinergic differentiation factor (CDF/LIF) promotes survival of isolated rat embryonic motoneurons in vitro. Neuron. 1992 April; 8(4):737-44). Briefly, pregnant female Wistar rats of 15 days gestation, were killed by cervical dislocation and the foetuses were removed from the uterus. Their spinal cords were removed and placed in ice-cold medium of Leibovitz (L15, Invitrogen, 11415-049) containing 1% of bovine serum albuminutes (BSA fatty acid free, Eurobio, Les Ulis, France, GXXBSA01-65). Meninges were carefully removed.
The spinal motor neurones were dissociated by trypsinisation for 20 minutes at 37° C. (trypsin EDTA 10× Invitrogen 15400054) diluted in PBS without calcium and magnesium (Invitrogen 2007-03). The reaction was stopped by the addition of Dulbecco Modified Eagle's Media (DMEM, Invitrogen 21969-035) containing DNase I grade II (0.1 mg/ml Roche diagnostic 104159) and 10% foetal calf serum (FCS, Invitrogen 10270098). The suspension was then mechanically dissociated by 3 passages through a 10 ml pipette. Cells were then centrifuged at 580 g for 10 minutes at room temperature. The pellet of dissociated cells was re-suspended in L15 medium and the resulting suspension was enriched in motor neurones by centrifugation at 180×g for 10 minutes at room temperature on a layer of BSA solution (3.5%) in L15 medium. The supernatant was discarded and the pellet was re-suspended in L15 medium supplemented with DNase I (1%). Then the suspension was layered over a cushion of Optiprep (d: 1.06 g/ml; Abcys, Paris, France; 1030061) and centrifuged at 335×g for 15 minutes at room temperature. The upper phase, containing the purified motor neurones, was collected, re-suspended with L15 medium and centrifuged at 800×g for 10 minutes at room temperature. The cell pellet was finally resuspended in a defined culture medium consisting of neurobasal medium supplemented with 2% B27, 2 mM L-Glutamine and Penicillin 50 Ul/ml-Streptomycin 50 μg/ml. Viable cells were counted in a Neubauer cytometer using the trypan blue exclusion test (Sigma T8154) then plated at 30 000 cells/well in 96 well-plates (pre-coated with poly-1-lysine; Nunclon, Invitrogen P5899) and cultured at 37° C. in a humidified air (95%) CO2 (5%) atmosphere.
The culture medium was changed into a defined culture medium after a 12 hours incubation period following the conditions described below:
BDNF 50 ng/ml and 10 ng/ml (in 0.1% DMSO)
After 6 hours, 12 hours and 24 hours of incubation with, cells were fixed for 5 minutes in an ethanol/acetic acid solution (95%/5%) at −20° C. and rinsed 3 times in PBS.
Motor neurones and sensory neurones were labelled by monoclonal anti β-Tubulin antibody (Sigma T8660) diluted at 1:400 in incubation solution (PBS with 5% of FCS and 0.1% of saponin, Sigma S-7900). This antibody specifically labels neurone cell bodies and neurites.
After 2 hours of incubation, the cells were washed in PBS and incubated with Alexa Fluor 488 goat anti mouse IgG (Molecular Probes A11001) diluted at 1:300 in incubation solution to reveal the 8-Tubulin III antibodies.
Analysis of the total length of neurones labelled with anti β-Tubulin antibodies (neurones) were carried out using In Cell Analyzer 1000 3.2.Workstation software.
The results were expressed in percentage compared to the vehicle. Comparison of groups was carried out using the unpaired T test.

This is an account of results in patent US20130023504A1, “Modulation of Prostaglandin/Cyclooxygenase Metabolic Pathways” (HUNTER-FLEMING LIMITED, priority 2006, published 2013).

B1: BDNF: Brain derived nerve growth factor, a specific growth factor for motor neurones; reference compound (protein, UniProt P23560 19-247, looked up)
Neurotrophic factor BDNF …: APMKEANIRGQGGLAYPGVRTHGTLESVNGPKAGSRGLTSLADTFEHVIEELLDEDQKVRPNEENNKDADLYTSRVMLSSQVPLEPPLLFLLEEYKNYLDAANMSMRVRRHSDPARRGELSVCDSISEWVTAADKKTAVDMSGGTVTVLEKVPVSKGQLKQYFYETKCNPMGYTKEGCRGIDKRHWNSQCRTTQSYVRALTMDSKKRIGWRFIRIDTSCVCTLTIKRGR
As to B1, the “Neurites length per field, % Vehicle” value reads like this: (10 ng/ml, 6 hours) 193%; (10 ng/ml, 12 hours) 173%; (10 ng/ml, 24 hours) 170%; (50 ng/ml, 6 hours) 180%; (50 ng/ml, 12 hours) 152%. The “Neurites length per field, Mean” value runs as follows: (10 ng/ml, 6 hours) 489.5 μm; (10 ng/ml, 12 hours) 731.3 μm; (10 ng/ml, 24 hours) 366.1 μm; (50 ng/ml, 6 hours) 457.2 μm; (50 ng/ml, 12 hours) 643.7 μm; (50 ng/ml, 24 hours) 293.6 μm.
